Laboratory results: patent publication US20220025003A1 (University of Washington, published 2022)
Read-outs that look alike come from different tables or passages of the source.

What was measured:
[1] = target: T1, NS3a/grazoprevir complex (biotinylated NS3a_3 with grazoprevir) (hepatitis C virus genotype 1a); experiment: ratio of apparent KD against the danoprevir/NS3a complex of the same clone
T1 construct: See note of m30; also called grazoprevir/NS3a complex

[2] = target: T2, NS3a/asunaprevir complex (biotinylated NS3a_3 with asunaprevir) (hepatitis C virus genotype 1a); experiment: as above
T2 construct: See note of m30

[3] = target: T3, NS3a/danoprevir complex (biotinylated NS3a_3 with danoprevir) (hepatitis C virus genotype 1a); experiment: yeast surface display
T3 construct: See note of m30; also called danoprevir/NS3a complex

[4] = target: T1, NS3a/grazoprevir complex (biotinylated …); experiment: yeast surface display titration, apparent KD; NS3a_3, 10 drug:1 NS3a
[5] = target: T2, NS3a/asunaprevir complex (biotinylated …); experiment: as above
[6] = target: T3, NS3a/danoprevir complex (biotinylated …); experiment: as above
[7] = target: T1, NS3a/grazoprevir complex (biotinylated …); experiment: yeast surface display; relative binding, too weak for a full titration curve
[8] = target: T2, NS3a/asunaprevir complex (biotinylated …); experiment: as above
[9] = target: T3, NS3a/danoprevir complex (biotinylated …); experiment: as above
[10] = target: T3, NS3a/danoprevir complex (biotinylated …)
[11] = target: T1, NS3a/grazoprevir complex (biotinylated …); experiment: yeast surface display; against the NS3a/danoprevir complex
[12] = target: T2, NS3a/asunaprevir complex (biotinylated …); experiment: as above
[13] = target: T1, NS3a/grazoprevir complex (biotinylated …); experiment: yeast surface display, flow cytometry
[14] = target: T4, NS3aH1-mCherry, no drug (DMSO) (hepatitis C virus); experiment: colocalization, confocal microscopy, NIH3T3 cells, no drug
T4 construct: also called NS3a-mCherry

[15] = target: T3, NS3a/danoprevir complex (biotinylated …); experiment: yeast surface display, flow cytometry
[16] = target: T1, NS3a/grazoprevir complex (biotinylated …); experiment: yeast surface display

B1: DNCR1, yeast surface display (C-terminal fusion to Aga2) (designed binder)
chain: KDNSSTIEGRYPYDVPDYALQASGGGGSGGGGSGGGGSASHMSSDEEEARELIERAKEAAERAQEAAERTGDPRVRELARELKRLAQEAAEEVKRDPSSSDVNEALKLIVEAIEAAVDALEAAERTGDPEVRELARELVRLAVEAAEEVQRNPSSSDVNEALLSIVIAIEAAVHALEAAERTGDPEVRELARELVRLAVEAAEEVQRNPSSREVEHALMKIVLAIYEAEESLREAEESGDPEKREKARERVREAVERAEEVQRDPSGWLNHLEGGGSEQKLISEEDL
[1]
  Fold drug specificity: 15 fold
[2]
  Fold drug specificity: 33 fold
[3]
  Kd: < 200 nM
[4]
  Kd: 2900 nM
[5]
  Kd: 6300 nM
[6]
  Kd: 190 nM

B2: D5, yeast surface display (C-terminal fusion to Aga2) (designed binder)
chain: KDNSSTIEGRYPYDVPDYALQASGGGGSGGGGSGGGGSASHMSSDEEEARELIERAKEAAERAQEAAERTGDPRVRELARELKRLAQEAAEEVKRDPSSSDVNEALKLIVEAIEAAVDALEAAERTGDPEVRELARELVRLAVEAAEEVQRNPSSSDVNEALLTIVIAIEAAVNALEAAERTGDPEVRELARELVRLAVEAAEEVQRNPSSREVNIALWKIVLAIQEAVESLREAEESGDPEKREKARERVREAVERAEEVQRDPSGWLNHLEGGGSEQKLISEEDL
[7]
  binding result: binds
[8]
  binding result: binds
[9]
  binding result: binds

B3: DNCR2, yeast surface display (C-terminal fusion to Aga2) (designed binder)
chain: KDNSSTIEGRYPYDVPDYALQASGGGGSGGGGSGGGGSASHMSSDEEEARELIERAKEAAERAQEAAERTGDPRVRELARELKRLAQEAAEEVKRDPSSSDVNEALKLIVEAIEAAVDALEAAERTGDPEVRELARELVRLAVEAAEEVQRNPSSSDVNEALHSIVYAIEAAIFALEAAERTGDPEVRELARELVRLAVEAAEEVQRNPSSRNVEHALMRIVLAIYLAEENLREAEESGDPEKREKARERVREAVERAEEVQRDPSGWLNHLEGGGSEQKLISEEDL
[10]
  Kd: 0.036 nM
[1]
  Fold drug specificity: 56000 fold
[2]
  Fold drug specificity: 21000 fold
[4]
  Kd: 2000 nM
[5]
  Kd: 770 nM
[11]
  fold specificity: > 20000 fold
[12]
  fold specificity: > 20000 fold

B4: G3 M112E, yeast surface display (designed binder)
chain: DIEKLCKKAEEEAKEAQEKADELRQRHPDSQAAEDAEDLANEAEAAVLAACSLAQEHPNADIAKLCIKAASEAAEAASKAAELAQRHPDSQAARDAIKLASQAARAVILAIELAAENPNADIAKLCIKAASEAAEAASKAAELAQRHPDSQAARDAIKLASQAAEAVERAIWLAAENPNADIAKKCIKAASEAAEEASKAAEEAQRHPDSQKARDEIKEASQKAEEVKERCKS
notes: also called G3 interface point mutant M112E
[13]
  binding result: no binding

B5: G3 A175Q, yeast surface display (designed binder)
chain: DIEKLCKKAEEEAKEAQEKADELRQRHPDSQAAEDAEDLANEAEAAVLAACSLAQEHPNADIAKLCIKAASEAAEAASKAAELAQRHPDSQAARDAIKLASQAARAVILAIMLAAENPNADIAKLCIKAASEAAEAASKAAELAQRHPDSQAARDAIKLASQAAEAVERAIWLAQENPNADIAKKCIKAASEAAEEASKAAEEAQRHPDSQKARDEIKEASQKAEEVKERCKS
notes: See note of m25; also called G3 interface point mutant A175Q
[13]
  binding result: no binding

B6: Tom20-BFP-ANR-ANR (other)
chain: MVGRNSAIAAGVCGALFIGYCIYFDRKRRSDPNFMSELIKENMHMKLYMEGTVDNHHFKCTSEGEGKPYEGTQTMRIKVVEGGPLPFAFDILATSFLYGSKTFINHTQGIPDFFKQSFPEGFTWERVTTYEDGGVLTATQDTSLQDGCLIYNVKIRGVNFTSNGPVMQKKTLGWEAFTETLYPADGGLEGRNDMALKLVGGSHLIANIKTTYRSKKPAKNLKMPGVYYVDYRLERIKEANNETYVEQHEVAVARYCDLPSKLGHKLNSGSGEQKLISEEDLGSGTGSGTGSGTGTTSGTGTGGSTGGELDELVYLLDGPGYDPIHSDGSGTGSGTGSGTGTTSGTGTGGSTGGELDELVYLLDGPGYDPIHSDGSGATNFSLLKQAGDVEENPG
[14]
  binding result: binds

B7: D5 W177D, yeast surface display (designed binder)
chain: SSDEEEARELIERAKEAAERAQEAAERTGDPRVRELARELKRLAQEAAEEVKRDPSSSDVNEALKLIVEAIEAAVDALEAAERTGDPEVRELARELVRLAVEAAEEVQRNPSSSDVNEALLTIVIAIEAAVNALEAAERTGDPEVRELARELVRLAVEAAEEVQRNPSSREVNIALDKIVLAIQEAVESLREAEESGDPEKREKARERVREAVERAEEVQRDPSGWLNH
notes: also called point mutant of the D5 interface, W177D
[15]
  binding result: no binding (tested: 1 µM NS3a with avidity, 10 µM danoprevir)

B8: GNCR1, yeast surface display (C-terminal fusion to Aga2) (designed binder)
chain: KDNSSTIEGRYPYDVPDYALQASGGGGSGGGGSGGGGSASHMDIEKLCKKAEEEAKEAQEKADELRQRHPDSQAAEDAEDLANLAVAAVLTACLLAQEHPNADIAKLCIKAASEAAEAASKAAELAQRHPDSQAARDAIKLASQAARAVILAIMLAAENPNADIAKLCIKAASEAAEAASKAAELAQRHPDSQAARDAIKLASQAAEAVERAIWLAAENPNADIAKKCIKAASEAAEEASKAAEEAQRHPDSQKARDEIKEASQKAEEVKERCKSLEGGGSEQKLISEEDL
[16]
  Kd: < 200 nM
[4]
  Kd: 140 nM

B9: ANR-ANR-BFP-CAAX (other)
chain: MGELDELVYLLDGPGYDPIHSDGSGTGSGTGSGTGTTSGTGTGGSTGGELDELVYLLDGPGYDPIHSDGSGTGSGTGSGTGTTSGTGTGGSTGEQKLISEEDLGSGSSELIKENMHMKLYMEGTVDNHHFKCTSEGEGKPYEGTQTMRIKVVEGGPLPFAFDILATSFLYGSKTFINHTQGIPDFFKQSFPEGFTWERVTTYEDGGVLTATQDTSLQDGCLIYNVKIRGVNFTSNGPVMQKKTLGWEAFTETLYPADGGLEGRNDMALKLVGGSHLIANIKTTYRSKKPAKNLKMPGVYYVDYRLERIKEANNETYVEQHEVAVARYCDLPSKLGHKLNRKHKEKMSKDGKKKKKKSKTKCVIM
[14]
  binding result: binds
